Molecular target: T1, transferrin receptor protein 1 (Homo sapiens, UniProt P02786)
T1 construct: First, we incubated 3F3-FMA with a cell lysate overnight; endogenous in cells; host or cells: HT-1080 (ATCC CRL-7951)
Assay: Antigen identification by immunoprecipitation-mass spectrometry
Assay type: binding
Settings: HT-1080 cell lysate
Procedure: HT-1080 cells were seeded in DMEM (Corning 10-013-CM) and 10% Hi-FBS with 1% penicillin and streptomycin (PS) with 1% MEM Non-Essential Amino Acids Solution (100×) (Thermo Fisher Scientific 11140-076) 16 h prior to use. DMSO or 1 μM of RSL3 was added and incubated for 4 h. Following treatment, the medium was aspirated from each dish and cells were washed twice with PBS. Cells were lysed with 70 μl lysis buffer (RIPA buffer from ThermoFisher, cat. 89900, 1 mM EDTA, 1 mM PMSF, 1× Halt™ protease inhibitor cocktail from ThermoFisher, cat. 78430 and 1× Halt™ phosphatase inhibitor cocktail from ThermoFisher, cat. 78426). Unlysed cells and debris were pelleted for 15 min at 16,000×g at 4° C. The samples were incubated with 10 μg of 3F3 FMA overnight at 4° C. with shaking. […]
Trypsin digestion was performed overnight at 37° C. […] CID fragmentation was applied with 35% collision energy and resulting fragments were detected using the rapid scan rate in the ion trap. […]
Raw mass spectrometric data were analyzed using MaxQuant v.1.6.1.0 (Cox and Mann, 2008) (MaxQuant, RRID:SCR_014485) and employed Andromeda for database search (Cox et al., 2011) at default settings with a few modifications. […]

T1 sequence (P02786 whole entry): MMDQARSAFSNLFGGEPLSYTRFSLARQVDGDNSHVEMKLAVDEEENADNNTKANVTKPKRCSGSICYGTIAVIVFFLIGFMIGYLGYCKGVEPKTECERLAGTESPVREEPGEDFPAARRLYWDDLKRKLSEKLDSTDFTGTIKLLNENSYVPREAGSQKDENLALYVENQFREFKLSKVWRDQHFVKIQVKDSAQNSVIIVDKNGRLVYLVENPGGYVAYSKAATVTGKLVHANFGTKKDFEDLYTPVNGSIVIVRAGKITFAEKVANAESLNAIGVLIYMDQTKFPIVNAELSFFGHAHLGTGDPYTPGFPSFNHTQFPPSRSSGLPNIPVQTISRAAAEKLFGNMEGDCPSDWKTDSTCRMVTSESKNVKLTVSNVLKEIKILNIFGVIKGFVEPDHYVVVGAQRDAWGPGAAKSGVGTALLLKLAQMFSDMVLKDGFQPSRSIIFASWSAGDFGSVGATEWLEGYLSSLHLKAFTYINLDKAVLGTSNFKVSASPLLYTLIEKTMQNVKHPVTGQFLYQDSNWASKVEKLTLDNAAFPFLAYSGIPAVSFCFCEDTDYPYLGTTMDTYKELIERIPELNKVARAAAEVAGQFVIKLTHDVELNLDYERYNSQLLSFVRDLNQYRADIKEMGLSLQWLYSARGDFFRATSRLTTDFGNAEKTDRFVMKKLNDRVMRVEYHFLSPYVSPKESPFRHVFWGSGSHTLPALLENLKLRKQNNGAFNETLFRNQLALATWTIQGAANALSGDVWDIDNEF

B1: 3F3-FMA: murine monoclonal IgG1 raised against ferroptotic membrane fractions; antigen is human transferrin receptor protein 1 (TfR1) (antibody, V domains shown)
VH: EVLLQQSGTELVRPGALVKLSCKASGFNIQDLYIHWVKQRPEQGLEWIGWIDPETDNTIYDPKFQGKASITADTSSNTAYLQLSSLTSEDTAMYYCSTGLLQWYFDVWGAGTAVTVSS
VL: DIVMTQSPSSLAMSIGQKVTMRCKSSQSLLNSYNQKNCLAWYQQKPGQSPKLLLYFVSTRESGVPDRFIGSGSGTDFTLTISSVQAEDLADYFCQQHYSTPLTFGAGTKLELK
- amino acid coverage of TfR1: 53%
- confidence identification of transferrin receptor protein 1 as target antigen: 63%
